Results on 3 molecules are retold here after patent US20220213467A1 (YEDA RESEARCH AND DEVELOPMENT, published 2022).

Experiment [1] addresses T1, gp10-7 complex (bacteriophage T4) (bacteriophage T4, UniProt P10928 1-602; P19061 1-1032).
T1 construct: also called gp10-7 complexes
Nature of the experiment: on-chip assemblograms in 1D compartments, post-staining.

In experiment [2] the target is T2, pre-wedge, gp10-7-8 complex (bacteriophage T4) (bacteriophage T4, UniProt P10928 1-602; P19061 1-1032; P19062 1-334).
T2 construct: also called pre-wedges
Nature of the experiment: on-chip gene titration, yield calculated from post-staining.

The target in experiment [3] is T3, gp7, bacteriophage T4 gene product 7 (bacteriophage T4, UniProt P19061 1-1032).
T3 construct: Expressed cell-free; also called gene-7 product
T3 sequence: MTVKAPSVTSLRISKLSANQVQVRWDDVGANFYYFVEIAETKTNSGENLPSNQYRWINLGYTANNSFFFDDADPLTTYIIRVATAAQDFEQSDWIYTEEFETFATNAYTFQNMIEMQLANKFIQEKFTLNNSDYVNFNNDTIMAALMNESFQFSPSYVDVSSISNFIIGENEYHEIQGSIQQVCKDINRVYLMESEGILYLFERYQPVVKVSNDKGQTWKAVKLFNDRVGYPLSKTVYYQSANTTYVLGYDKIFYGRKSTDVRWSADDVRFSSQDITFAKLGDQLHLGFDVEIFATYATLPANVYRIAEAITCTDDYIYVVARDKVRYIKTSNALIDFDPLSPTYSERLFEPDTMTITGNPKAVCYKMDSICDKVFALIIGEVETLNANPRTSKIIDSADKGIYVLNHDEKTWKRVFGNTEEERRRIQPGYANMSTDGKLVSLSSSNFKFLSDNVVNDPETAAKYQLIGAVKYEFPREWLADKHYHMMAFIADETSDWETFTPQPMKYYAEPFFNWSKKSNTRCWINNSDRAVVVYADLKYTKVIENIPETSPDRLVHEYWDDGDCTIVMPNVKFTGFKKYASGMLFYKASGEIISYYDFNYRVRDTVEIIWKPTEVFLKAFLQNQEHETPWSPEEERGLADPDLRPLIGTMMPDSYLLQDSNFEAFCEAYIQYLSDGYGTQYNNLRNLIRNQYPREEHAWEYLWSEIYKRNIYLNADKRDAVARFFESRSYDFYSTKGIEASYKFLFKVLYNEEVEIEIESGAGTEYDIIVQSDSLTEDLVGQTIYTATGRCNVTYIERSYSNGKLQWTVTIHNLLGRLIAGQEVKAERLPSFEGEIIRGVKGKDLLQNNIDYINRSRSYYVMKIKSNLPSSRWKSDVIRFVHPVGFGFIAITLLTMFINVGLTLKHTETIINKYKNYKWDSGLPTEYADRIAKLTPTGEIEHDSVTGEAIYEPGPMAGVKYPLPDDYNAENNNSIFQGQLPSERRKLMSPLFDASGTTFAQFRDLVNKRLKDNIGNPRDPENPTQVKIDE
Nature of the experiment: on-chip assemblograms in 1D compartments on gp11-HA, post-staining with gp8.

B1: gp8, bacteriophage T4 gene product 8 (other)
chain: MNDSSVIYRAIVTSKFRTEKMLNFYNSIGSGPDKNTIFITFGRSEPWSSNENEVGFAPPYPTDSVLGVTDMWTHMMGTVKVLPSMLDAVIPRRDWGDTRYPDPYTFRINDIVVCNSAPYNATESGAGWLVYRCLDVPDTGMCSIASLTDKDECLKLGGKWTPSARSMTPPEGRGDAEGTIEPGDGYVWEYLFEIPPDVSINRCTNEYIVVPWPEELKEDPTRWGYEDNLTWQQDDFGLIYRVKANTIRFKAYLDSVYFPEAALPGNKGFRQISIITNPLEAKAHPNDPNVKAEKDYYDPEDLMRHSGEMIYMENRPPIIMAMDQTEEINILFTF
notes: Expressed cell-free; also called gene-8 product
For the molecule B1, in experiment [1], the binding result was “binds”.

B2: gp6, bacteriophage T4 gene product 6 (other)
chain: MANTPVNYQLTRTANAIPEIFVGGTFAEIKQNLIEWLNGQNEFLDYDFEGSRLNVLCDLLAYNTLYIQQFGNAAVYESFMRTANLRSSVVQAAQDNGYLPTSKSAAQTEIMLTCTDALNRNYITIPRGTRFLAYAKDTSVNPYNFVSREDVIAIRDKNNQYFPRLKLAQGRIVRTEIIYDKLTPIIIYDKNIDRNQVKLYVDGAEWINWTRKSMVHAGSTSTIYYMRETIDGNTEFYFGEGEISVNASEGALTANYIGGLKPTQNSTIVIEYISTNGADANGAVGFSYADTLTNITVININENPNDDPDFVGADGGGDPEDIERIRELGTIKRETQQRCVTATDYDTFVSERFGSIIQAVQTFTDSTKPGYAFIAAKPKSGLYLTTVQREDIKNYLKDYNLAPITPSIISPNYLFIKTNLKVTYALNKLQESEQWLEGQIIDKIDRYYTEDVEIFNSSFAKSKMLTYVDDADHSVIGSSATIQMVREVQNFYKTPEAGIKYNNQIKDRSMESNTFSFNSGRKVVNPDTGLEEDVLYDVRIVSTDRDSKGIGKVIIGPFASGDVTENENIQPYTGNDFNKLANSDGRDKYYVIGEINYPADVIYWNIAKINLTSEKFEVQTIELYSDPTDDVIFTRDGSLIVFENDLRPQYLTIDLEPISQ
notes: Expressed cell-free; also called gene-6 product
Take B2: the binding result in experiment [2] was “binds”.

B3: gp10, bacteriophage T4 gene product 10 (other)
chain: MKQNINIGNVVDDGTGDYLRKGGIKINENFDELYYELGDGDVPYSAGAWKTYNASSGQTLTAEWGKSYAINTSSGRVTINLPKGTVNDYNKVIRARDVFATWNVNPVTLVAASGDTIKGSAVPVEINVRFSDLELVYCAPGRWEYVKNKQIDKITSSDISNVARKEFLVEVQGQTDFLDVFRGTSYNVNNIRVKHRGNELYYGDVFSENSDFGSPGENEGELVPLDGFNIRLRQPCNIGDTVQIETFMDGVSQWRSSYTRRQIRLLDSKLTSKTSLEGSIYVTDLSTMKSIPFSAFGLIPGEPINPNSLEVRFNGILQELAGTVGMPLFHCVGADSDDEVECSVLGGTWEQSHTDYSVETDENGIPEILHFDSVFEHGDIINITWFNNDLGTLLTKDEIIDETDNLYVSQGPGVDISGDVNLTDFDKIGWPNVEAVQSYQRAFNAVSNIFDTIYPIGTIYENAVNPNNPVTYMGFGSWKLFGQGKVLVGWNEDISDPNFALNNNDLDSGGNPSHTAGGTGGSTSVTLENANLPATETDEEVLIVDENGSVIVGGCQYDPDESGPIYTKYREAKASTNSTHTPPTSITNIQPYITVYRWIRIA
notes: also called gene-10 product
With B3, the binding result in experiment [3] is listed as “binds”.
